Here are results for 2 molecules from US20080248994A1 (GOVERNMENT OF THE UNITED STATES OF AMERICA AS REPRESENTED …, published 2008).

The target of assay [1] is T1, hypophosphorylated pRb (endogenous, differentiated C2C12 myotubes, DM) (mouse, UniProt P13405 2-921, hypophosphorylated (sites not given)).
T1 construct: Endogenous protein in extracts of cells kept in differentiation medium for 36 hr
T1 sequence (looked up): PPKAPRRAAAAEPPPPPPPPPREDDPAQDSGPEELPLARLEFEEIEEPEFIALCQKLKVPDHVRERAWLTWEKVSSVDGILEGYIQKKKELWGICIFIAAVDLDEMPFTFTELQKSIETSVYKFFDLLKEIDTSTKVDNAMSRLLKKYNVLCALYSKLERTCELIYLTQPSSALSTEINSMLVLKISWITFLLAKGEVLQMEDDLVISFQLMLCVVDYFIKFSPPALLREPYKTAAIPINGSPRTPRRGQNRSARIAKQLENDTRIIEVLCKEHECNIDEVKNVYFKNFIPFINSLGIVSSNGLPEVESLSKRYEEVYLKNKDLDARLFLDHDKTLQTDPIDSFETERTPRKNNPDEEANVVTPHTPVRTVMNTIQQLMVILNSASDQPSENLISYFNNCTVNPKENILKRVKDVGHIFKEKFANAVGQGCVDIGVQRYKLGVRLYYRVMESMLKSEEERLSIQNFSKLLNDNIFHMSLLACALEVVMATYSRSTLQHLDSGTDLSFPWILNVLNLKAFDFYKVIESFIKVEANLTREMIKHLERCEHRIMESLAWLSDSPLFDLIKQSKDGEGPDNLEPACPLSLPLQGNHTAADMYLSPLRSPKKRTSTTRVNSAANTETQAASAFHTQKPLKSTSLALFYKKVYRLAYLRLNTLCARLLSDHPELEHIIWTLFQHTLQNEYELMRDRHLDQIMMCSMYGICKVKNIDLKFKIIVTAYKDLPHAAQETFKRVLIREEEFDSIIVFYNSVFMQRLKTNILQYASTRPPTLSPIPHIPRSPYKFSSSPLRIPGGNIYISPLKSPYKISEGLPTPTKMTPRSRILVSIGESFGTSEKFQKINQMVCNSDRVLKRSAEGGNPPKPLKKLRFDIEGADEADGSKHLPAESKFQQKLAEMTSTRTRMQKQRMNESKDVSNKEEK
Put plainly: co-immunoprecipitation from C2C12 myotube extracts, Western blot. Background: In western blotting, separated proteins are transferred to a membrane and probed.

The target of assay [2] is T2, hyperphosphorylated pRb (endogenous, proliferating C2C12 myoblasts, GM) (mouse, UniProt P13405 2-921, hyperphosphorylated (sites not given)).
T2 construct: Endogenous protein in extracts of cells kept in growth medium
T2 sequence (looked up): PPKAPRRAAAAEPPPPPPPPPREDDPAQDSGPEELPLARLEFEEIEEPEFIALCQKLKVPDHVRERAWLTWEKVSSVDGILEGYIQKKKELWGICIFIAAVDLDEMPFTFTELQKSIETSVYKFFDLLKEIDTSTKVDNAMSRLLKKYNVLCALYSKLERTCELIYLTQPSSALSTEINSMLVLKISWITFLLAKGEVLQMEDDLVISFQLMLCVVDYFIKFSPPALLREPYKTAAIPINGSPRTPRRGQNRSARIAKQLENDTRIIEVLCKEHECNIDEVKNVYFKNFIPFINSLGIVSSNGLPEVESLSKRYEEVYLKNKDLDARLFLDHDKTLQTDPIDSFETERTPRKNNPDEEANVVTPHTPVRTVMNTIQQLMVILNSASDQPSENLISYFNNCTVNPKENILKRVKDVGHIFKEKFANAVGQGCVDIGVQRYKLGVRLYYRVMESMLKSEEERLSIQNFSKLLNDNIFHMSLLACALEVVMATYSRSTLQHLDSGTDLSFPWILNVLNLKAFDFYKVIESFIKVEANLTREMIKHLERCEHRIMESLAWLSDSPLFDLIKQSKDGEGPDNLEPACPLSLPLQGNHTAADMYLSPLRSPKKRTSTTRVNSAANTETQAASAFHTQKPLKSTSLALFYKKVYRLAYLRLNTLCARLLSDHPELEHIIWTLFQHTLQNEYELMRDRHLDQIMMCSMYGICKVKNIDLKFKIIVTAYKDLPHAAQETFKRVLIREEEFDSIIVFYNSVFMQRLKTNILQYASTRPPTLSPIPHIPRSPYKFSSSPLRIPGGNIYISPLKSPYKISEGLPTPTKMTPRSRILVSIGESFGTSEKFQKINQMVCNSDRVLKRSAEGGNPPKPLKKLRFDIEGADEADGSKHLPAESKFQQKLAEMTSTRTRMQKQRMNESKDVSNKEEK
In words: co-immunoprecipitation from C2C12 myoblast extracts, Western blot.

In assay [3] the target is T3, GST-pRb wt (UniProt P06400 379-928, limits assumed).
T3 construct: Expressed in bacteria; the whole protein is named here; also called GST-Rb (WT); GST-RB (WT); not shown: GST tag
T3 sequence (looked up): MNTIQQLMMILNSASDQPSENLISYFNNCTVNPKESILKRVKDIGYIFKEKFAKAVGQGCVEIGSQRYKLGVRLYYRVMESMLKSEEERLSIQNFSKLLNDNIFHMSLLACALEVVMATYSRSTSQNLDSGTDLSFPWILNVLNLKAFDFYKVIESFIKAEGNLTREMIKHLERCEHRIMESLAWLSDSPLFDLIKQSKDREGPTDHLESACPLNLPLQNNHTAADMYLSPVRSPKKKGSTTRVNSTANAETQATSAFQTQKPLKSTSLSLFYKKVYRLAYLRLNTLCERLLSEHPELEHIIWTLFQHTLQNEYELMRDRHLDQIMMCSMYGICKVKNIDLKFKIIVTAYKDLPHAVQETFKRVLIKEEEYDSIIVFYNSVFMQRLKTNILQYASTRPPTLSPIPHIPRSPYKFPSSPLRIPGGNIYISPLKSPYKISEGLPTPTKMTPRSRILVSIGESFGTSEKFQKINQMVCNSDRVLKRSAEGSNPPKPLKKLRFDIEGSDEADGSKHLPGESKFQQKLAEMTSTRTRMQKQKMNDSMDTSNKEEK
Put plainly: GST pull-down from extracts of transfected pRb-/- 3T3 cells, Western blot (data not shown). How it is done: The association with MyoD was monitored at different stages of myogenic conversion (GM and DM for 36 hours) by Western blot using anti-MyoD antibodies. In FIG. 9B, pRb−/−p53±double knock out derived 3T3 cells were transfected with Flag-HDAC1 and myc-MyoD. Nuclear extracts were prepared and subsequently incubated with increasing amounts of either GST-pRbwt or GST-pRbN757F. […] The HDAC1 present in the supernatant of the GST pull-down was immunoprecipitated with anti-Flag conjugated beads, and the associated MyoD was detected by Western blot by using anti-myc antibodies. In FIG. 9C (upper panel), a graph illustrates the ability to activate MCK-luc reporter by MyoD transiently expressed in pRb−/−p53±3T3 fibroblasts, evaluated with or without the co-expression of pRb wt or pRb N757F. In the lower panel of […], levels of endogenous MHC, p21, myogenin, tubulin, and ectopically produced pRb were evaluated by Western blot in pRb−/−p53±3T3 fibroblasts after transient expression of MyoD alone or in conjunction with either pRb wt or pRb N757F. FIG. 9D is a graph illustrating the ability to activate the MCK-luc reporter by MyoD and MEF2C alone, or in combination with E12, in pRb−/−p53±double knock out derived 3T3 cells was evaluated with or without the co-expression of pRb wt or pRb N757F. […] Transcriptional activation was measured by luciferase assay. […]

B1: MyoD (endogenous, in extracts of C2C12 cells; also endogenous MyoD of MD3 and CC42 cells) (other, mouse, UniProt P10085 1-318, looked up)
chain: MELLSPPLRDIDLTGPDGSLCSFETADDFYDDPCFDSPDLRFFEDLDPRLVHMGALLKPEEHAHFPTAVHPGPGAREDEHVRAPSGHHQAGRCLLWACKACKRKTTNADRRKAATMRERRRLSKVNEAFETLKRCTSSNPNQRLPKVEILRNAIRYIEGLQALLRDQDAAPPGAAAFYAPGPLPPGRGSEHYSGDSDASSPRSNCSDGMMDYSGPPSGPRRQNGYDTAYYSEAARESRPGKSAAVSSLDCLSSIVERISTDSPAAPALLLADAPPESPPGPPEGASLSDTEQGTQTPSPDAAPQCPAGSNPNAIYQVL
notes: Transcription factor (bHLH)
Consider B1, for which the binding result in assay [1] and in assay [2] was “no binding” each time.

B2: myc-MyoD (expressed from a transfected vector in pRb-/- 3T3 cells) (other, UniProt P10085 1-318, looked up)
chain: MELLSPPLRDIDLTGPDGSLCSFETADDFYDDPCFDSPDLRFFEDLDPRLVHMGALLKPEEHAHFPTAVHPGPGAREDEHVRAPSGHHQAGRCLLWACKACKRKTTNADRRKAATMRERRRLSKVNEAFETLKRCTSSNPNQRLPKVEILRNAIRYIEGLQALLRDQDAAPPGAAAFYAPGPLPPGRGSEHYSGDSDASSPRSNCSDGMMDYSGPPSGPRRQNGYDTAYYSEAARESRPGKSAAVSSLDCLSSIVERISTDSPAAPALLLADAPPESPPGPPEGASLSDTEQGTQTPSPDAAPQCPAGSNPNAIYQVL
notes: also called myc-tagged MyoD; not shown: myc tag
For B2, in assay [3], the binding result is “no binding”.
